42 molecules from paper PMC9658990 can be followed below.

One data set addresses T1, HMW-uPA (high molecular weight urokinase), biotinylated for FLAA (human, UniProt P00749;P00749 21-177;179-431). The data set is described as follows: FLAA (OliGreen); BPs-T: 50 mM Bis-Tris/HCl pH 6.5, 110 mM NaCl, 5 mM MgCl2, 1 mM CaCl2, 1 mM KCl (printed KCl2), 0.05% Tween 20, 23 °C.
In the case of CAAGCGGGGGTGAGAGATCTGTCAGTACGAGCTGGGCTTGCG (ssDNA) [Ex-S37], the binding result is reported as “binds”.
Still for that read-out and setting: next, CAAGCGGGGGTTAGAGATCTGTCAGTACGAGCTGGGTTTGCG (ssDNA) [Ex-S12]: “binds”; CCAGCGGGGGTGAGAGATCTGTCAGTACGAGCTGGGTTTGCG (ssDNA) [Ex-S2]: “binds”.

In a further data set the target is T1, HMW-uPA (high molecular weight …). Described as above. This is another data set of the same source.
Regarding TAAGCGGGGGTGAGAGATCTGTCAGTACGAGCTGGGTTTGCG (ssDNA) [Ex-S1], the binding signal is 36 % signal reduction vs uPAapt-02-FR.
On the same count and under the same terms, for CAAGCGGGGGTGAGCGATCTGTCAGTACGAGCTGGGTTTGCG (ssDNA) [Ex-S15] the value was 89 % signal reduction vs uPAapt-02-FR; for CAAGCGGGGGTGAGAGATCTGTCAGTACGCGCTGGGTTTGCG (ssDNA) [Ex-S30], 89 % signal reduction vs uPAapt-02-FR; for CAAGCGGGGGTGAGAGATCTGTCAGTACGAGCTGGGTTTGCT (ssDNA) [Ex-S42], 17 % signal reduction vs uPAapt-02-FR.
In the case of CAAGCGGGGGTGAGAGATCTGTCAGTACGAGCCGGGTTTGCG (ssDNA) [Ex-S33], the binding signal was 82 % signal reduction vs uPAapt-02-FR.
As for CAAGCGGGGGTGAGAGATCTGTCAGTACGAGCTGGGTCTGCG (ssDNA) [Ex-S38], the binding signal was 53 % signal reduction vs uPAapt-02-FR.
The same measure, in the same setting: for CAAGCGGGGGTGAGAGATCTGTCAGTACGATCTGGGTTTGCG (ssDNA) [Ex-S31] the value was 100 % signal reduction vs uPAapt-02-FR; for CAAGCGGGGGTGAGAGATCCGTCAGTACGAGCTGGGTTTGCG (ssDNA) [Ex-S20], 95 % signal reduction vs uPAapt-02-FR.
On the same count and under the same terms, next, CAAGCGGGTGTGAGAGATCTGTCAGTACGAGCTGGGTTTGCG (ssDNA) [Ex-S9]: 65 % signal reduction vs uPAapt-02-FR.
Take CAAGCGGGGGTGAGAGATCTGTCAGTACGAGTTGGGTTTGCG (ssDNA) [Ex-S32]: the binding signal was 63 % signal reduction vs uPAapt-02-FR.
Turning to CAAGTGGGGGTGAGAGATCTGTCAGTACGAGCTGGGTTTGCG (ssDNA) [Ex-S5], the binding signal was 56 % signal reduction vs uPAapt-02-FR.
On the same count and under the same terms, next, CAAGCGGGGGTGAGAGCTCTGTCAGTACGAGCTGGGTTTGCG (ssDNA) [Ex-S17]: 16 % signal reduction vs uPAapt-02-FR; CAAGCGGGGGTGAGAGATCTGTCAGTACTAGCTGGGTTTGCG (ssDNA) [Ex-S29]: 47 % signal reduction vs uPAapt-02-FR; CAAGCGGGGGTGAGAGATCTGTCAGTATGAGCTGGGTTTGCG (ssDNA) [Ex-S28]: 95 % signal reduction vs uPAapt-02-FR.
Consider CAAGCGGGGGTGAGAGATCTGTTAGTACGAGCTGGGTTTGCG (ssDNA) [Ex-S23], for which the binding signal was 13 % signal reduction vs uPAapt-02-FR.
Same read-out and setting: for CAAGCGGGGGTGAGAGATCTGTCAGTACGAGCTGGGTTCGCG (ssDNA) [Ex-S39] the value was 65 % signal reduction vs uPAapt-02-FR; for CAAGCGGTGGTGAGAGATCTGTCAGTACGAGCTGGGTTTGCG (ssDNA) [Ex-S8], 94 % signal reduction vs uPAapt-02-FR.
With CAAGCGGGGGTGAGATATCTGTCAGTACGAGCTGGGTTTGCG (ssDNA) [Ex-S16], the binding signal was 72 % signal reduction vs uPAapt-02-FR.
With CAAGCGGGGGTGAGAGATCTGCCAGTACGAGCTGGGTTTGCG (ssDNA) [Ex-S22], the binding signal is 99 % signal reduction vs uPAapt-02-FR.
Same read-out and setting: for CAAGCGGGGGTGAGAGATTTGTCAGTACGAGCTGGGTTTGCG (ssDNA) [Ex-S19] the value was 0 % signal reduction vs uPAapt-02-FR.
As to CAAGCGGGGGTGAGAGACCTGTCAGTACGAGCTGGGTTTGCG (ssDNA) [Ex-S18], the binding signal was 94 % signal reduction vs uPAapt-02-FR.
Still for that read-out and setting: for CAAGCGGGGGTGAGAGATCTGTCAGTACGAGCTGGTTTTGCG (ssDNA) [Ex-S36] the value was 11 % signal reduction vs uPAapt-02-FR; for CAAGCGGGGGTGAGAGATCTGTCAGTCCGAGCTGGGTTTGCG (ssDNA) [Ex-S27], 100 % signal reduction vs uPAapt-02-FR.
With CAAGCGGGGGTGAGAGATCTTTCAGTACGAGCTGGGTTTGCG (ssDNA) [Ex-S21], the binding signal is 92 % signal reduction vs uPAapt-02-FR.
In the case of CAAGCGGGGGTGAGAGATCTGTCAGCACGAGCTGGGTTTGCG (ssDNA) [Ex-S26], the binding signal is 89 % signal reduction vs uPAapt-02-FR.
Still for that read-out and setting: for CAAGCTGGGGTGAGAGATCTGTCAGTACGAGCTGGGTTTGCG (ssDNA) [Ex-S6] the value was 50 % signal reduction vs uPAapt-02-FR.
Turning to CAAGCGGGGGTGATAGATCTGTCAGTACGAGCTGGGTTTGCG (ssDNA) [Ex-S14], the binding signal was 91 % signal reduction vs uPAapt-02-FR.
With CAAGCGGGGGTGCGAGATCTGTCAGTACGAGCTGGGTTTGCG (ssDNA) [Ex-S13], the binding signal was 97 % signal reduction vs uPAapt-02-FR.
As to CAAGCGGGGGTGAGAGATCTGTCAGTACGAGCTGTGTTTGCG (ssDNA) [Ex-S35], the binding signal was 27 % signal reduction vs uPAapt-02-FR.
The same measure, in the same setting: next, CACGCGGGGGTGAGAGATCTGTCAGTACGAGCTGGGTTTGCG (ssDNA) [Ex-S3]: 18 % signal reduction vs uPAapt-02-FR; CAAGCGTGGGTGAGAGATCTGTCAGTACGAGCTGGGTTTGCG (ssDNA) [Ex-S7]: 34 % signal reduction vs uPAapt-02-FR; CAAGCGGGGGCGAGAGATCTGTCAGTACGAGCTGGGTTTGCG (ssDNA) [Ex-S11]: 91 % signal reduction vs uPAapt-02-FR.
The same measure, in the same setting: next, CAAGCGGGGGTGAGAGATCTGTCCGTACGAGCTGGGTTTGCG (ssDNA) [Ex-S24]: 98 % signal reduction vs uPAapt-02-FR.
With CAAGCGGGGGTGAGAGATCTGTCAGTACGAGCTGGGTTTGTG (ssDNA) [Ex-S41], the binding signal was 3 % signal reduction vs uPAapt-02-FR.
CAAGCGGGGGTGAGAGATCTGTCATTACGAGCTGGGTTTGCG (ssDNA) [Ex-S25]: the binding signal is 99 % signal reduction vs uPAapt-02-FR.
As for CAAGCGGGGGTGAGAGATCTGTCAGTACGAGCTTGGTTTGCG (ssDNA) [Ex-S34], the binding signal was 0 % signal reduction vs uPAapt-02-FR.
As for CAAGCGGGGTTGAGAGATCTGTCAGTACGAGCTGGGTTTGCG (ssDNA) [Ex-S10], the binding signal is 78 % signal reduction vs uPAapt-02-FR.
Same read-out and setting: next, CAATCGGGGGTGAGAGATCTGTCAGTACGAGCTGGGTTTGCG (ssDNA) [Ex-S4]: 85 % signal reduction vs uPAapt-02-FR; CAAGCGGGGGTGAGAGATCTGTCAGTACGAGCTGGGTTTTCG (ssDNA) [Ex-S40]: 3 % signal reduction vs uPAapt-02-FR.
